Results on two molecules are retold here after article PMC4029776, “Transiently Produced Hypochlorite Is Responsible for the Irreversible Inhibition of Chlorite Dismutase” (Biochemistry, 2014).

In series [1] the test system is Arg183. The series can be described thus: kinetics. To be noted: ferric heme enzyme, chlorite turnover (inferred from context); cited from earlier work.
Substrate in series [2]: [O-][Cl+]O
Kind of series: Clark-type O2 electrode, initial rates, Michaelis-Menten. The series is classed as biochemical, Nitrospira defluvii. The following applies: pH 7.0, 50 mM phosphate, 30 °C, 50 nM enzyme, NaClO2 10-1000 μM.

Take “Chlorite dismutase (DaCld) (Dechloromonas aromatica)”: the pKa result in series [1] is recorded as “∼pH 6.5”.

B1: NdCld (chlorite dismutase from "Candidatus Nitrospira defluvii") (Nitrospira defluvii) (protein)
chain: ADREKLLTESGVYGTFATFQMDHDWWDLPGESRVISVAEVKGLVEQWSGKILVESYLLRGLSDHADLMFRVHARTLSDTQQFLSAFMGTRLGRHLTSGGLLHGVSKKPTYVAGFPESMKTELQVNGESGSRPYAIVIPIKKDAEWWALDQEARTALMQEHTQAALPYLKTVKRKLYHSTGLDDVDFITYFETERLEDFHNLVRALQQVKEFRHNRRFGHPTLLGTMSPLDEILEKFAQ
For orientation: Km means the concentration of substrate that gives half-maximal velocity. Turning to B1, in series [2], the Km was 138 ± 20 µM and the kcat was found to be 83 ± 4 s^–1.
